Source: article PMC7738868

Molecular target: fibronectin with extra-domain B (EDB-FN) (human (endogenous in U87MG and U251MG)) (UniProt P02751)
Assay: cellular uptake of rhodamine B-labelled micelles, confocal microscopy; U87MG and U251MG cells incubated 1 h at 37 °C with 100 µg/mL micelles holding 1.0, 2.5 or 5.0 wt% APTEDB-DSPE, washed with PBS, fixed; fluorescence normalised to DAPI (ImageJ); nontargeting PEG2000-DSPE micelles as …; also after EDB-FN siRNA in U87MG (uptake decreased) and over 5 min to 4 h

Chain of UniProt P02751 (P02751 32-2477): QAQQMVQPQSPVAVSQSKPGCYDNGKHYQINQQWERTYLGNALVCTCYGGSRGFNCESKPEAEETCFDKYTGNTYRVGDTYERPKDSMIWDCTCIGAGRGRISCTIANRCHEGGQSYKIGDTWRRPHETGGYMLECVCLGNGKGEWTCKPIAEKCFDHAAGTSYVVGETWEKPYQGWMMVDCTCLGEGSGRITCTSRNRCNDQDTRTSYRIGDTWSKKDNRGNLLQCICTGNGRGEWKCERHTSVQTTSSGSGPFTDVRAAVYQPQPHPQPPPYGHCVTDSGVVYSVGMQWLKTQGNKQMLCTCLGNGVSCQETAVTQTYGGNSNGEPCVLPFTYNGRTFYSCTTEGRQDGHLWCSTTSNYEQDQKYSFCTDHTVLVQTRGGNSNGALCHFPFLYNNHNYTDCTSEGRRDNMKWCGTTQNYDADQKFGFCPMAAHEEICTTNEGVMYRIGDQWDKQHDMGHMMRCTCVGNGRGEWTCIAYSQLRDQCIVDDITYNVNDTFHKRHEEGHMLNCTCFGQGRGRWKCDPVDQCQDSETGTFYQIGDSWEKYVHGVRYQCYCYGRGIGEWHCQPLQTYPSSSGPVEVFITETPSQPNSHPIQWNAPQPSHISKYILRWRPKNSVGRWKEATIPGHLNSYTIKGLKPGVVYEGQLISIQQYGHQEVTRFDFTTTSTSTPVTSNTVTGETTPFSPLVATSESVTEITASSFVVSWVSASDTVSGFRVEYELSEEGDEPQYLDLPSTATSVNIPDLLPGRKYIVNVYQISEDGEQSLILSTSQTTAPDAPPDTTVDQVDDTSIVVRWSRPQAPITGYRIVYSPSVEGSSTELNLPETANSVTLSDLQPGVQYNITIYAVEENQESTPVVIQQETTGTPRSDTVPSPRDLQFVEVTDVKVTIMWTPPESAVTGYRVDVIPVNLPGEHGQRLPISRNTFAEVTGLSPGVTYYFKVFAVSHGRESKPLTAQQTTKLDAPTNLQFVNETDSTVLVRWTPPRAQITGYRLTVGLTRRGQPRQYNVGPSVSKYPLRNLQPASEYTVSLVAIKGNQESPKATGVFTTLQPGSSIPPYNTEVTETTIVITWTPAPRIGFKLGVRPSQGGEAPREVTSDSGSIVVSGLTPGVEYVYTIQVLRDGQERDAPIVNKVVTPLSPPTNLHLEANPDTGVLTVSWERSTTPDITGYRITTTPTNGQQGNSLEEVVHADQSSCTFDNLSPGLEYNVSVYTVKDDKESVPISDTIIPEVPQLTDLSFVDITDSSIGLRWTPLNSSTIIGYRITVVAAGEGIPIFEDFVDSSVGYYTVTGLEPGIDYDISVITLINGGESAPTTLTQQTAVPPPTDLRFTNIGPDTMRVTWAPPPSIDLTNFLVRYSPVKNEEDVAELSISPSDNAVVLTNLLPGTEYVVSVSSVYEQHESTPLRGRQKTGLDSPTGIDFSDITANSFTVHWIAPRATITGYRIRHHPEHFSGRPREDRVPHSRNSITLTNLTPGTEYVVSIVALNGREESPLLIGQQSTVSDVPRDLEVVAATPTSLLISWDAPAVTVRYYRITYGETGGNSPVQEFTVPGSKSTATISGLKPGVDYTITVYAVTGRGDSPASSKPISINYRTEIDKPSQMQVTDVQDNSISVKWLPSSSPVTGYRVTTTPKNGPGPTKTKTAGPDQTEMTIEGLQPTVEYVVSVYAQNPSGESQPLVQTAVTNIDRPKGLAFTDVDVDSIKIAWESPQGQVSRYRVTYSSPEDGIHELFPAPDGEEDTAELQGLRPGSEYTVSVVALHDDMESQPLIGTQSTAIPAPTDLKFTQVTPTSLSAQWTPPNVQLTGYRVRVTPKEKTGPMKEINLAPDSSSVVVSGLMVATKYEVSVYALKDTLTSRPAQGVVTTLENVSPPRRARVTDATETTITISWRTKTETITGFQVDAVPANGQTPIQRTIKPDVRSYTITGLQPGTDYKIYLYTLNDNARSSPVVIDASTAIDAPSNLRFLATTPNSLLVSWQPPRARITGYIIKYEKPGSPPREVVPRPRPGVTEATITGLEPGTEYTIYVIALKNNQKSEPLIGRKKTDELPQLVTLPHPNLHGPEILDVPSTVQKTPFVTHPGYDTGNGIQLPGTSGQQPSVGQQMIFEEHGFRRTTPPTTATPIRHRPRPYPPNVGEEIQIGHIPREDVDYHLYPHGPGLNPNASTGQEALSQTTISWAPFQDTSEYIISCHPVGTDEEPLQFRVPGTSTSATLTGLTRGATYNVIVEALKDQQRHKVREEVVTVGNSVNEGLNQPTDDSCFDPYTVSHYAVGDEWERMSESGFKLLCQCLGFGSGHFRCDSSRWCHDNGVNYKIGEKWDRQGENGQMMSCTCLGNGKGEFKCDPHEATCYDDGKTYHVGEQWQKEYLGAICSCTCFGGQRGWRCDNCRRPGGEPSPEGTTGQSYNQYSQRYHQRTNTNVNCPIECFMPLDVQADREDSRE

cellular uptake, fluorescence intensity normalised to DAPI (U87MG cells, 1.0 wt% APTEDB-DSPE): 166 A.U.
cellular uptake, fluorescence intensity normalised to DAPI (U87MG cells, 2.5 wt% APTEDB-DSPE): 93.2 A.U.
cellular uptake, fluorescence intensity normalised to DAPI (U87MG cells, 5.0 wt% APTEDB-DSPE): 56.7 A.U.
cellular uptake, fluorescence intensity normalised to DAPI (U251MG cells, 1.0 wt% APTEDB-DSPE): 76.4 A.U.
cellular uptake, fluorescence intensity normalised to DAPI (U251MG cells, 2.5 wt% APTEDB-DSPE): 129 A.U.
cellular uptake, fluorescence intensity normalised to DAPI (U251MG cells, 5.0 wt% APTEDB-DSPE): 53.4 A.U.
Substance: APTEDB-conjugated PEG2000-DSPE (EDB-FN-specific aptamer-like peptide on the surface of a micellar nano-DDS) (designed binder)
